These results are taken from IntAct's records for PubMed 18292230.

B1: E3 ubiquitin-protein ligase CHIP (Homo sapiens), Q9UNE7-1 (parent)
chain: MKGKEEKEGGARLGAGGGSPEKSPSAQELKEQGNRLFVGRKYPEAAACYGRAITRNPLVAVYYTNRALCYLKMQQHEQALADCRRALELDGQSVKAHFFLGQCQLEMESYDEAIANLQRAYSLAKEQRLNFGDDIPSALRIAKKKRWNSIEERRIHQESELHSYLSRLIAAERERELEECQRNHEGDEDDSHVRAQQACIEAKHDKYMADMDELFSQVDEKRKKRDIPDYLCGKISFELMREPCITPSGITYDRKDIEEHLQRVGHFDPVTRSPLTQEQLIPNLAMKEVIDAFISENGWVEDY

The variants in the experiment derive from B1. The settings on record: with akt1_human AKT1, P31749.
Chain of akt1_human AKT1, P31749 (P31749 whole entry): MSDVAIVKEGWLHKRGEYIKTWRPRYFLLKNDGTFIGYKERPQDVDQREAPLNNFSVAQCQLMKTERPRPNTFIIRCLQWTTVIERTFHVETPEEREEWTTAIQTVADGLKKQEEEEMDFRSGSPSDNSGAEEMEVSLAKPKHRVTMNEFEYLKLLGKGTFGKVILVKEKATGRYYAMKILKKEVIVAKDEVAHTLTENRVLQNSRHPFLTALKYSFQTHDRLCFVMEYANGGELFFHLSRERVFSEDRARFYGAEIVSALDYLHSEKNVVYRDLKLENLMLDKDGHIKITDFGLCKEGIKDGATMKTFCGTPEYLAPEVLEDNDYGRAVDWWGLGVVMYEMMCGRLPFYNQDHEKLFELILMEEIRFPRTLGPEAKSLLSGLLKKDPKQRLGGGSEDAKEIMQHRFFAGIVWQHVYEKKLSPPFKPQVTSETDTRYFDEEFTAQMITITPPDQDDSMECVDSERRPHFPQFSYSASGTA
In the case of K30A, the “effect of a mutation on the interaction” value is recorded as “disrupting interaction”.
